This is an account of results in patent US20240026407A1, “MODIFICATION OF SAPONINS” (GLAXOSMITHKLINE BIOLOGICALS SA, priority 2020, published 2024).

What all share (format): biochemical, Quillaja saponaria
The nature of assay [1]: Experiment 6-1: specificity of rhamnosidases towards other rhamnose residues (C3 saccharide rhamnose, C28 saccharide rhamnose). The settings on record: TBE 2%, pH 7.5, 30 degC, 18 h; LCMS/MS; negative controls 0.18, 0.17.
Assay [2] is described as follows: Experiment 6-1: screening of rhamnosidases for derhamnosylation of saponins in treated bark extract (2%), QS-17 2310 to QS-18 2164 (PAR %). The settings on record: TBE 2%, pH 7.5, 30 degC, 18 h; TIC peak area ratio percent, LCMS/MS; negative controls 3.061, 2.429.
A short description of assay [3]: Experiment 6-1: screening of rhamnosidases for derhamnosylation of saponins in treated bark extract (2%), QS-17 2296 to QS-18 2150 (PAR %). The settings on record: TBE 2%, pH 7.5, 30 degC, 18 h; TIC peak area ratio percent of rhamnosylated starting saponin to derhamnosylated product, LCMS/MS; negative controls 4.876, 5.225.
Assay [4] can be described thus: Experiment 6-1: screening of rhamnosidases for derhamnosylation of saponins in treated bark extract (2%), desglucosyl-QS-17 2134 to QS-21 1988 (PAR %). The settings on record: TBE 2%, pH 7.5, 30 degC, 18 h; TIC peak area ratio percent, LCMS/MS; negative controls 2.719, 2.158.

B1: 1046 (protein)
chain: MQYWQKQLKFTSIILLSGLTLGGITACAEQDIAQLQNVEAEPSPVEQEAQTSLATSFKHPPHEAKPLTWLHAMSGNMSKAGLTKDLEAIAEAGLGGTMLFNVTQGIPLGKVKFNSTEHIDLIGHLAAESQRLGLSFGMHNCDGWTSSGGPWVTPEHSMKQITYNETIVDGGNVNIKLAQPATMLDYYQDIAVIAYPSLATEITDFTVKPKITASDANFDAQIVQNNNLTDYSSITPSNEQPGWLQFSYQQPYTLRLIDMLLHSGRGLNVSLHISDDGKNFKQVDNLTLRRPGKSTYAFDEAFAGYTAKHFRLVSNKVMHIKELRLSSTPSLDNFSGRTAASRSDYQEFEDIGKPSAELVIDPESVINLTASLNSEGQLITTLPAGKWTIMRFGYTSTGAVNIPASREGTGLEVDKFSKAAFKSHYDAYITNVIDKLKVVAPNALYSIEIDSYEVGAQNWTHNYEQLFQAQFGYDLVPFLPLFAGKFVESPTVAEAVLWDTRDLNNKLITENYYGYFRELAHQDGIKTYLEPYGSGPFNELDVASKADLPMGEFWLDNNNFRLSASASAAHIYNKPIVAAEAFTQFPRNNWLFHPAEGKADSDKSWALGVNQHVFHRFAHQANTHVMPGMTMNRWGAHMDRTQTWWTVAGKPWFKYVARGQQLLRTGHNVADVLWFLGDATPTTCPEKDPISAVLPLNINYDCLNSEVLQRLSVEDGKVTLPHGSQYKILVLNNHQTLTLKSLKKIYQLAQQGAVIVGTPVEQLAGRFVSEQQRQELKMMVDYIWSQPTTYNISTKAKTSHGHTGVFPTHEIAKTSKIDWQKIYNEQNWPLDLAIKNADKFYFTHRRSAQYDIYFIFNDSAQAQVFDARFNISGKIPELWDADTGNITQLGAFSDNGQITRVPLKLGAYDSVFVVFEKSSKAVTALKPEFVLSQPELDVVLDAQQQPKVIKTTHEAIEITGAWQVEFDKFYGLDKSFTFEQLIDWKLHPEQTIQDYSGTATYQKTIDVPAELLADNKQIFLDLGKVKVAANVYLNDKLAGSAWHAPYRIDISNFVQAGKNKLTIKVANLWVNRLLADRKLPDTSGFKIARWQNPITPMPQWYVDNQPAPKSERVTFVTQVFMDDNEPRQSSGLIGPVQLSVRSKTQL
modifications: Catenovulum agarivorans
Regarding B1, the “ratio PP/QS-21” value in assay [1] is reported as 0.13. For the same molecule, the “Peak57 (PAR %)” value in assay [2] is listed as 2.480%. Further, the “QS-17 (PAR %)” value in assay [3] is recorded as 4.051%. For the same molecule, the “Peak75 (PAR %)” value in assay [4] stood at 2.446%.

B2: 1015 (protein)
chain: MITIIGLGVEHSERGCVTDNPHPRFSYAVRSDRSDVVVDGARLAVGDWTCEAGDQTAVAYDGKPLEPFTEYHVTLDVSTADGEHAHAETTFETGRLGQGWQGRWISDAGYDFVEKKVSPVPMMFRKPFTCDPTKSVRKARLYATAMGVYDFACDGKRIGDRYFAPGFTSYKTNLQYQTYDVTDMVGAGAVHTLLATVAGGWAVGSFVFTRKNRVSADRQALLAELRIEYTDGSVEVIGTDASWEVSESGPVRMADLYDGETYDAMMDPGADGSRCKDWRHASLENPRSRPRHIEADYGAGVVAHETLSPVSVARRAGGELVYDFGQNLAGVVRMRIANGRAGQTVVVRHAEILNPDGSLNTAFLRTAKATATYRCADADGFPEGVQEYGPRFTYMGFRYVSVRGVAEDDLRIEAVVLHSDLRPIGDFACSDERLNQLQHNIVWGAKSNLMDIPTDCPQRDERMGWTGDIAVFAPTACLNFDMSRFLEKWLRDVKAEQLKTGGIPNTVPVQGYGFPATMPEMAIDWWGDACVLVPWAVYRSSGDATVLHDMYDTMKRYVKACRFWAGLIGFGKSRYIWNTPSMLHFGDWVAPDVPKMSQWQKRAKWTATASLNNTSRTLARVAEVLGYDEDARAYDELADKVADAYCSVLTDGNGRLDNEFQTGYVLPLYLNMFPETVRGNAVDHLVKLIEDNDYCIGTGFPGTPYILFALADNGREDVAYRMLLNTACPSWLYEVGMGATTIWERWDGLDENGECPIGDDGTDLMISYNHYASGAVGAFLYQRVAGIEAIGAAYRSFRVRPVLGGGLTWAKAHVDTPYGRVGSAWSLDGGRFSITVEVPVGTTCELALPDGTTMQLSNGVHTATCEM
modifications: Bifidobacterium moukalabense
As to B2, the “ratio PP/QS-21” value in assay [1] is reported as 0.15. Moreover, the “Peak57 (PAR %)” value in assay [2] was 3.048%. Also, the “QS-17 (PAR %)” value in assay [3] worked out at 4.132%. The “Peak75 (PAR %)” value in assay [4] worked out at 2.969%.
